Experimental data: patent US12624118B2, “Trispecific binding molecules against BCMA and uses thereof” (Novartis AG, priority 2019, dated 2026)

Key:
[1] = Thermal stability by differential scanning fluorimetry (DSF); assay type: physicochemical; details: Sypro Orange; 25° C. to 95° C. at 0.5° C./minute
Description: Disulfide stabilized variants were assessed for improved thermal stability using both differential scanning calorimetry (DSC) and differential scanning fluorimetry (DSF) using standard techniques. For DSF, 1-3 ug of each construct was add to 1× Sypro Orange (Thermo-Fisher) in 25 ul total volume in 96-well PCR plate. Using a Bio-Rad CFX96 RT-PCR system equipped with C1000 Thermal Cycler, the temperature was increased from 25° C. to 95° C. at 0.5° C./minute and the fluorescence monitored. The manufacturer-supplied software was used to determine Tm.

[2] = Thermal stability by differential scanning calorimetry (DSC); assay type: physicochemical; details: HBS, 0.5 mg/mL; 25° C. to 100° C. at 1° C./minute
Description: For DSC, all samples were dialyzed into HEPES-buffered saline (HBS) and diluted to final concentration of 0.5 mg/mL. Tm and Tonset were determined using a MicroCal VP-Capillary DSC system (Malvern) by increasing temperature from 25° C. to 100° C. at 1° C./minute with a filtering period of 2 seconds and a mid-gain setting.

[3] = test system: BCMA+ multiple myeloma cell lines; assay: In vitro RTCC assays of anti-BCMA x anti-CD3 bispecific antibodies; assay type: cell-based; details: tested as anti-BCMA x anti-CD3 bispecific antibodies having VH and VL sequences of the binder
Text: (§1) Anti-BCMA x anti-CD3 bispecific antibodies having VH and VL sequences of AB1, AB2, and AB3 were produced.

[4] = test system: KMS11-Luc multiple myeloma orthotopic tumor; assay: KMS11-Luc multiple myeloma orthotopic tumor model; assay type: in vivo; details: tested as anti-BCMA x anti-CD3 bispecific antibodies having VH and VL sequences of the binder; NSG mice
Text: as §1

[5] = molecular target: T1, recombinant human CD2 (Homo sapiens, UniProt P06729); assay: Isothermal calorimetry (ITC) binding affinity of CD58 variants; details: recombinant human CD2 (100 μM) titrated into 10 μM CD58 variant in HBS, apparent KD
T1 construct: transiently produced and purified from HEK293 cells along with the CD2 extracellular domain; made in house; host or cells: HEK293 / HEK293F cells (transient expression)
T1 sequence (P06729 with tags, fused parts or gaps): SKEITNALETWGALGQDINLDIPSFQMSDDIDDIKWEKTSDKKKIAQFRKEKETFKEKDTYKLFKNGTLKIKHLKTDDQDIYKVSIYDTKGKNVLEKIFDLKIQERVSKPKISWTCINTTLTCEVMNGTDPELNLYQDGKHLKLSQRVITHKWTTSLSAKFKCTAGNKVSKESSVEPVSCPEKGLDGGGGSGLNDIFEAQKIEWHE
Description: To ensure the binding affinity remained uncompromised by the additional of the stabilizing disulfide variance, isothermal calorimetry (ITC) was performed on the resulting recombinant CD58 proteins to determine their apparent KD and binding stoicheometry (n) to recombinant human CD2.
Briefly, recombinant human CD2 and recombinant human CD58 variants were dialyzed into HEPES-buffered saline (HBS). CD2 was diluted to final concentration of 100 μM, CD58 variants were diluted to 10 μM. CD2 was titrated into 10 μM of CD58 variants via multiple injections and ΔH (kcal/mole) determined using a MicroCal VP-ITC isothermal titration calorimeter (Malvern). Titrations of CD2 into HBS were used as a reference and KD and n determined from the resulting data.

Molecule | Tm (° C.) By Differential Scanning Fluorimetry (DSF) [1] [°C] | Tm (° C.) By Differential Scanning Calorimetry (DSC) [2] [°C] | Tmonset (° C.) By Differential Scanning Calorimetry (DSC) [2] [°C] | activity in in vitro RTCC assays [3] | anti-tumor activity [4] | Kd [5] [nM]
IgV V54C_G88C: CD58 domain 1 with V54 and G88 replaced by cysteines to form a disulfide bridge (protein) SQQIYGVVYGNVTFHVPSNVPLKECLWKKQKDKVAELENSEFRAFSSFKNRVYLDTVSCSLTIYNLTSSDEDEYEMESPNITDTMKFFLYVLESGGGGSHHHHHHHH | 76.5 | 80.9 | 66.7 |  |  | 
IgV V45C_M105C: CD58 domain 1 with V45 and M105 replaced by cysteines to form a disulfide bridge (protein) SQQIYGVVYGNVTFHCPSNVPLKEVLWKKQKDKVAELENSEFRAFSSFKNRVYLDTVSGSLTIYNLTSSDEDEYECESPNITDTMKFFLYVLESGGGGSHHHHHHHH | 48.5 | 66.8 | 43.9 |  |  | 
IgV V45C_M114C: CD58 domain 1 with V45 and M114 replaced by cysteines to form a disulfide bridge (protein) SQQIYGVVYGNVTFHCPSNVPLKEVLWKKQKDKVAELENSEFRAFSSFKNRVYLDTVSGSLTIYNLTSSDEDEYEMESPNITDTCKFFLYVLESGGGGSHHHHHHHH | 63.5 | 72.5 | 49.6 |  |  | 
CD58_IgV: IgV domain (domain 1) of human CD58, without stabilizing disulfide (protein) SQQIYGVVYGNVTFHVPSNVPLKEVLWKKQKDKVAELENSEFRAFSSFKNRVYLDTVSGSLTIYNLTSSDEDEYEMESPNITDTMKFFLYVLESGGGGSHHHHHHHH | 48.5 | 60.9 | 46.3 |  |  | 
AB3: anti-BCMA binder, AB3 Family, derived from parental PI-61 (antibody, V domains shown) VH: QVQLVESGGGVVQPGRSLRLSCAASGFTVSSYGMHWVRQAPGKGLEWVAVISYTGSNKYYADSVKGRFTISRDNSKNTLYLQMNSLRAEDTAVYYCGGSGYALHDDYYGLDVWGQGTLVTVSS VL: QSALTQPASVSGSPGQSITISCTGTSSDVGGYNYVSWYQQHPGKAPKLMIYDVSNRLRGVSNRFSGSKSGNTASLTISGLQAEDEADYYCSSYTSSSALYVFGSGTKVTVL |  |  |  | active | anti-tumor activity | 
CD58 Full ECD: recombinant human CD58 full extracellular domain with C-terminal 8×his tag (protein, C-terminal 8xHis tag, recombinant human CD58 full extracellular domain with C-terminal 8×his tag) SQQIYGVVYGNVTFHVPSNVPLKEVLWKKQKDKVAELENSEFRAFSSFKNRVYLDTVSGSLTIYNLTSSDEDEYEMESPNITDTMKFFLYVLESLPSPTLTCALTNGSIEVQCMIPEHYNSHRGLIMYSWDCPMEQCKRNSTSIYFKMENDLPQKIQCTLSNPLFNTTSSIILTTCIPSSGHSRHRGGGGSHHHHHHHH | 59.5 | 65.0 | 48.8 |  |  | 570
